Paper PMC7990132

Molecular target: FcγRI (UniProt P12314)
Test: BLI

Chain of UniProt P12314 (P12314 16-374): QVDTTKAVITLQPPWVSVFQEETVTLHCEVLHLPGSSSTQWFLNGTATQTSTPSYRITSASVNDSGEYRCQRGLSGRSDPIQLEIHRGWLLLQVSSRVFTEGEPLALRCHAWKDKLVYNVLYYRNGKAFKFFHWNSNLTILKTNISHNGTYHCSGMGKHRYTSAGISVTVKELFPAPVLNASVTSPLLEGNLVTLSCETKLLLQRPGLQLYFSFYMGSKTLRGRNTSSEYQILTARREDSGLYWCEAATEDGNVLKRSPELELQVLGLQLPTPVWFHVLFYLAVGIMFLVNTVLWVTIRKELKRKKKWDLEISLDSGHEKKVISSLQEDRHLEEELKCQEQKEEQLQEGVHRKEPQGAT

Sintilimab (antibody)
Kd: 10 nM
